Source: patent US20240156980A1 (Molecular Partners, published 2024)
Substitutions are numbered along the chain they refer to.

Columns and labels:
[1] = target: T1, human EGFR on tumor cells (human, UniProt P00533 25-1210); test: cell-based or functional assay
[2] = target: T2, CD3-specific binding domain C7v14; test: SPR validation of down-tuned binders
T2 construct: Used as analyte in SPR; also called hC22_88B02v14
T2 chain: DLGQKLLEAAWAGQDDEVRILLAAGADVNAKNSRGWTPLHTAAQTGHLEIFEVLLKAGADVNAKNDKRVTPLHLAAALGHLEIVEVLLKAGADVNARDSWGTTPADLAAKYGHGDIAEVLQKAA

[3] = target: T1, human EGFR on tumor cells; test: flow cytometry on HCT 116 tumor cells, detection with anti-DARPin antibodies
Protocol: (§1) The determination of CD3 binding was performed with human CD3 on Jurkat cells, and binding to hEGFR on cells with HCT116 tumor cells, using Flow Cytometer Attune Nxt. A titration of prodrug DARPin molecules was incubated with 200′000 cells per well (for both Jurkat and HCT116 cells) for 30 min at 4° C. After washing, CD3 binding of DARPin® molecule was detected by 1:1000-diluted anti-DARPin® Antibody-Mix (1 h incubation at 4° C.) with the corresponding secondary antibody anti-rabbit IgG Alexa Fluor 488 (30 min incubation at 4° C.), which was added after washing off excess anti-DARPin Antibodies. Cells were subsequently washed and stained for livedead (aqua, 1:1000, thermofisher) and resuspended in Cytofix fixation buffer (BD Biosciences). Median of mean fluorescence intensities of Alexa Fluor 488 binding on live cells were measured by Flow Cytometry and data was plotted using GraphPad Prism 8.

human CD3 on T cells [4] = target: T3, human CD3 on T cells (human, UniProt P07766 23-207; P09693 23-182; P04234 22-171); test: flow cytometry on Jurkat cells, detection with anti-DARPin antibodies and anti-rabbit IgG Alexa Fluor 488, MFI [column T-cell binding]
T3 construct: whole, on cells; also called human CD3 on Jurkat wt cells; CD3 on pan T-cells
T3 sequence (P07766 23-207, chain 1 of 3): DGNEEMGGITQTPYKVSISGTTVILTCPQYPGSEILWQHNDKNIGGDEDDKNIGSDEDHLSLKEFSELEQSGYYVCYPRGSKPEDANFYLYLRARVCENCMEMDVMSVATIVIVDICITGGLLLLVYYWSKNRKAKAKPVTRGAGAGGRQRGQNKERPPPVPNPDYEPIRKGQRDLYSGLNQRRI
T3 sequence (P09693 23-182, chain 2 of 3): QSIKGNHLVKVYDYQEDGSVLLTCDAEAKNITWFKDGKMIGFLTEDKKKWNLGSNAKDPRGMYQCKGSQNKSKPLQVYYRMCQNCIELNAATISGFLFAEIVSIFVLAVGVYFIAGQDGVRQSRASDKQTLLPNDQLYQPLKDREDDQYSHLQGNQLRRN
T3 sequence (P04234 22-171, chain 3 of 3): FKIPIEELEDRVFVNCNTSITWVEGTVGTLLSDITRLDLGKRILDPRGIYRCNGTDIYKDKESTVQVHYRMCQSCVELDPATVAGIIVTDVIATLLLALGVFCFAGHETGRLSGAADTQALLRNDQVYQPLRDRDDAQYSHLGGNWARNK
Protocol: as §1

[5] = target: T4, recombinant human EGFR extracellular domain (human, UniProt P00533 25-645); test: SPR (ProteOn XPR36); biotinylated DARPin captured on NLC chip, EGFR ECD as analyte; 1:1 Langmuir fit
T4 construct: range 25-645; The range L25-S645 is stated for the ECD used in the selection; the SPR analyte is printed as hEGFR / recombinant human EGFR ECD; also called hEGFR; human EGFR ECD
Protocol: (§2) All SPR measurements were performed using a ProteOn™ XPR36 Protein Interaction Array System (Bio-Rad). […] PBS pH7.4 containing 0.005% Tween-20 (Sigma) was used as flow buffer, which was additionally supplemented with 1 mg/ml BSA in the case of mEGFR target. A three-fold dilution series from 0.74 nM to 60 nM of hEGFR or mEGFR was injected for 180 s at a flow rate of 100 ul/min, and dissociation was recorded for 1800 s. The captured DARPin molecules were regenerated by a single pulse of 10 mM glycine-HCl, pH 2.5+1M NaCl. The data was double-referenced using the interspots (surface reference) and a blank injection (buffer reference). Each individual dilution-set was fitted to the Langmuir-1:1-model.

[6] = target: T5, recombinant mouse EGFR extracellular domain (mouse, UniProt Q01279 25-647); test: as above
T5 construct: extracellular domain; Bought protein; also called mEGFR; mouse EGFR ECD
Protocol: as §2

human CD3 on T cells [7] = target: T3, human CD3 on T cells; test: cell-based or functional assay

B1: Active TCE EGFR-C7v14-6His (designed binder)
chain: MGSDLGYKLLRAAFHGQDDEVRILLAAGADVNAKDLIGQTPLHNAAWVGHLEIVEVLLKAGADVNAKDYYGNTPLHLAAHDGHLEIVEVLLKAGADVNAQDTWGETPADLATNAGHEDIAEVLQKAAGSPTPTPTTPTPTPTTPTPTPTGSDLGQKLLEAAWAGQDDEVRILLAAGADVNAKNSRGWTPLHTAAQTGHLEIFEVLLKAGADVNAKNDKRVTPLHLAAALGHLEIVEVLLKAGADVNARDSWGTTPADLAAKYGHGDIAEVLQKAAGSHHHHHH
T-cell activation EC50 (CD25 on CD8+ T cells), EGFR+ HCT 116 tumor cells and pan T-cells [1]: 0.0016 nM | T-cell activation EC50 (CD25 on CD8+ T cells), EGFR+++ A431 tumor cells and pan T-cells [1]: 0.0037 nM

B2: Binder #5 (designed binder)
chain: MRGSHHHHHHGSDLGKKLLQAARAGQLDEVRELLKAGADVNAKDAKGLTPLHLAAYHGHLEIVEVLLKAGADVNAKDVYGWTPLHIAAASGHLEIVEVLLKAGADVNAKDWLGITPLHLAASHGHLEIVEVLLKAGADVNAQDKSGKTPADLAARAGHQDIAEVLQKAA
notes: N-terminal His-tag; also called 06E05v30
binding result [2]: binds

B3: Binder #11 (designed binder)
chain: B2 chain with W111A, I114A
notes: N-terminal His-tag; also called 06E05v36
binding result [2]: binds

B4: Binder #10 (designed binder)
chain: B2 chain with Y79A, I114A
notes: N-terminal His-tag; also called 06E05v35
binding result [2]: binds

B5: Binder #6 (designed binder)
chain: B2 chain with Y79A
notes: N-terminal His-tag; also called 06E05v31
binding result [2]: binds

B6: Binder #8 (designed binder)
chain: B2 chain with H123A
notes: N-terminal His-tag; also called 06E05v33
binding result [2]: binds

B7: Binder #7 (designed binder)
chain: B2 chain with W111A
notes: N-terminal His-tag; also called 06E05v32
binding result [2]: binds

B8: Binder #9 (designed binder)
chain: B2 chain with I114A
notes: N-terminal His-tag; also called 06E05v34
binding result [2]: binds

B9: Binder #12 (designed binder)
chain: B2 chain with I114A, H123A
notes: N-terminal His-tag; also called 06E05v37
binding result [2]: binds

B10: CD3-PDD CL EGFR-C7v119-[Linker#2]-06E05v07-6His (designed binder)
chain: MGSDLGYKLLRAAFHGQDDEVRILLAAGADVNAKDLIGQTPLHNAAWVGHLEIVEVLLKAGADVNAKDYYGNTPLHLAAHDGHLEIVEVLLKAGADVNAQDTWGETPADLATNAGHEDIAEVLQKAAGSPTPTPTTPTPTPTTPTPTPTGSDLGQKLLEAAWAGQDDEVRELLKAGADVNAKNSRGWTPLHTAAQTGHLEIFEVLLKAGADVNAKDDKGVTPLHLAAALGHLEIVEVLLKAGADVNAQDSWGTTPADLAAKYGHEDIAEVLQKAASGGGGGPQASTGRSGGGGGGSDLGKKLLQAARAGQLDEVRELLKAGADVNAKDAKGLTPLHLAAYHGHLEIVEVLLKAGADVNAKDVYGWTPLHIAAASGHLEIVEVLLKAGADVNAKDWLGWTPLHLAASAGHLEIVEVLLKAGADVNAQDKSGKTPADLAARAGHQDIAEVLQKAAGSHHHHHH
EC50 [3]: 0.353 nM | binding result (human CD3 on T cells [4]): no binding (tested: 100000 pM)

B11: CD3-PDD CL EGFR-C7v122-[Linker#2]-06E05v07-6His (designed binder)
chain: B10 chain with D216N, G219R, Q248R, E265Q
EC50 [3]: 0.41 nM | binding result (human CD3 on T cells [4]): no binding

B12: anti-EGFR DARPin (biotinylated, monovalent EGFR-specific ankyrin repeat domain) (designed binder)
chain: MGSDLGYKLLRAAFHGQDDEVRILLAAGADVNAKDLIGQTPLHNAAWVGHLEIVEVLLKAGADVNAKDYYGNTPLHLAAHDGHLEIVEVLLKAGADVNAQDTWGETPADLATNAGHEDIAEVLQKAA
modifications: biotinylated (site not stated)
Kd [5]: 0.47 nM | koff [5]: 0.0002 s⁻¹ | kon [5]: 420000 M⁻¹ s⁻¹ | Kd [6]: 0.49 nM | koff [6]: 0.00032 s⁻¹ | kon [6]: 640000 M⁻¹ s⁻¹

B13: CD3-PDD NCL EGFR-C7v119-[NCL1]-06E05v05-6His (designed binder)
chain: MGSDLGYKLLRAAFHGQDDEVRILLAAGADVNAKDLIGQTPLHNAAWVGHLEIVEVLLKAGADVNAKDYYGNTPLHLAAHDGHLEIVEVLLKAGADVNAQDTWGETPADLATNAGHEDIAEVLQKAAGSPTPTPTTPTPTPTTPTPTPTGSDLGQKLLEAAWAGQDDEVRELLKAGADVNAKNSRGWTPLHTAAQTGHLEIFEVLLKAGADVNAKDDKGVTPLHLAAALGHLEIVEVLLKAGADVNAQDSWGTTPADLAAKYGHEDIAEVLQKAASGPTPTPTTPTPTPTTPTPTPTGSDLGKKLLQAARAGQLDEVRELLKAGADVNAKDAKGLTPLHLAAYHGHLEIVEVLLKAGADVNAKDVYGWTPLHIAAASGHLEIVEVLLKAGADVNAKDALGWTPLHLAASHGHLEIVEVLLKAGADVNAQDKSGKTPADLAARAGHQDIAEVLQKAAGSHHHHHH
tumor cell killing EC50 (LDH release), HCT 116 tumor cells and pan T-cells (human CD3 on T cells [7]): 0.0821 nM

B14: CD3-PDD NCL EGFR-C7v122-[NCL1]-06E05v05-6His (designed binder)
chain: B13 chain with D216N, G219R, Q248R, E265Q
tumor cell killing EC50 (LDH release), HCT 116 tumor cells and pan T-cells (human CD3 on T cells [7]): > 0.1 nM

B15: CD3-PDD NCL EGFR-C7v119-[NCL1]-06E05v07-6His (designed binder)
chain: B13 chain with A398W, H410A
EC50 [3]: 0.503 nM | binding result (human CD3 on T cells [4]): no binding (tested: 100000 pM)

B16: CD3-PDD NCL EGFR-C7v122-[NCL1]-06E05v07-6His (designed binder)
chain: B13 chain with D216N, G219R, Q248R, E265Q, A398W, H410A
EC50 [3]: 0.593 nM | binding result (human CD3 on T cells [4]): no binding
